Patent US20110008436A1 (published 2011)
Where no end group is shown, it is not given here.

Columns and labels:
[1] = molecular target: T1, Substantially sericin-depleted silk fibroin from Bombyx mori (dissolved in 9.3 M LiBr, dialysed, then gelled … (Bombyx mori, UniProt P05790 22-5263; P21828 17-262, limits assumed); assay: HPLC of 23RGD extracted with dissolving buffer from the rinsed 23RGD-enhanced silk gel, against a 23RGD standard curve
T1 construct: also called silk molecule; depolymerized silk fibroin
Source text: 23RGD-infused gels were studied to quantify the amount of 23RGD bound to the silk-hydrogel device as well as the quantity of free 23RGD which might be rinsed free of the device under relevant conditions. Briefly, samples of 23RGD-infused gel were cast and rinsed according to the methods above, with samples of rinse buffer being collected from each rinse for subsequent analysis by HPLC. Additionally, subsequent to the last rinse, the gel samples were mechanically pulverized by means of a stainless steel stirring rod and the adsorbed 23RGD removed by incubation for 4 hours in a dissolving buffer. This mixture of gel and solvent was then centrifuged on an Eppendorf 5415C at 16,000 g RCF for 30 minutes. The supernatant was collected and centrifuged another 30 minutes at 16,000 g RCF after which time the supernatant was collected in a sample vial for HPLC analysis. Samples of rinse buffer from the first and last rinse were centrifuged in the same fashion after being diluted with the same solvent the gel was extracted with in a volumetric ratio of 1 part rinse buffer to 4 parts solvent. To ensure 23RGD-hydrogel device rinse-exposed surface area was not a limiting factor, the same rinse and extraction process was performed upon devices pulverized after gelation and before rinsing.

[2] = molecular target: T1, Substantially sericin-depleted silk …; assay: HPLC of 23RGD extracted from lyophilised silk precipitate; group called RLO in this sentence (0.49 mg/mL 23RGD per paragraph 318, which is RVLO in Table 10)
Experimental: (§1) The amount of 23RGD bound to silk precipitates was quantified by analyzing lyophilized samples. The 23RGD was removed by incubating the samples for 4 hours in a dissolving buffer, then centrifuging on an Eppendorf 5415C (Eppendorf North America Inc., Westbury, N.Y.) at 16,000 g (RCF) for 30 minutes and the supernatant collected. This supernatant was then centrifuged in identical fashion and the final supernatant collected for HPLC analysis using a PerkinElmer Series 200 (PerkinElmer, Waltham, Mass.). The 23RGD peak areas from each curve were compared against a standard curve. 1-Way ANOVA was used to test for significant differences caused by changing silk concentration, 23RGD concentration, and accelerant volume. A Student's t-test was used to test the significance of differences resulting from altered ethanol concentrations.

[3] = molecular target: T1, Substantially sericin-depleted silk …; assay: HPLC of 23RGD extracted from lyophilised silk precipitate; formulation labelled 0.6S 3R 10:1 (2.45 mg/mL 23RGD in 90% ethanol)
Experimental: as §1

[4] = molecular target: T1, Substantially sericin-depleted silk …; assay: HPLC of 23RGD extracted from lyophilised silk precipitate; SCLO formulation (low silk concentration, calculated ratio 6.7)
Experimental: as §1

[5] = molecular target: T1, Substantially sericin-depleted silk …; assay: HPLC of 23RGD extracted from lyophilised silk precipitate; AVHI formulation (high accelerant volume, calculated ratio 10.0)
Experimental: as §1

[6] = molecular target: T1, Substantially sericin-depleted silk …; assay: HPLC of 23RGD extracted from silk precipitate; ECLO formulation (80% ethanol accelerant), against the calculated ratio
Experimental: as §1

[7] = molecular target: T1, Substantially sericin-depleted silk …; assay: HPLC of 23RGD extracted from lyophilised silk precipitate; group called RMED (1.47 mg/mL 23RGD per paragraph 318, which is RLO in Table 10)
Experimental: as §1

[8] = molecular target: T1, Substantially sericin-depleted silk …; assay: HPLC of 23RGD extracted from lyophilised silk precipitate; BASE formulation (calculated ratio 5.0)
Experimental: as §1

[9] = molecular target: T1, Substantially sericin-depleted silk …; assay: HPLC of 23RGD extracted from lyophilised silk precipitate; AVLO formulation (low accelerant volume, calculated ratio 2.5)
Experimental: as §1

[10] = molecular target: T1, Substantially sericin-depleted silk …; assay: Inferred by the filing from the HPLC ratios of the precipitates
Experimental: as §1

[11] = molecular target: T1, Substantially sericin-depleted silk …; assay: HPLC of 23RGD extracted from silk precipitate, against the calculated ratio
Experimental: as §1

[12] = molecular target: T1, Substantially sericin-depleted silk …; assay: HPLC of 23RGD extracted from lyophilised silk precipitate; RHI formulation (high 23RGD, calculated ratio 10.0)
Experimental: as §1

[13] = molecular target: T1, Substantially sericin-depleted silk …; assay: HPLC of 23RGD extracted from lyophilised silk precipitate; SCVLO formulation (very low silk concentration, calculated ratio 10.0)
Experimental: as §1

Binder: GRGDIPASSKGGGGSRLLLLLLR-NH2 (also called 23RDG) [23RGD peptide (amphiphilic peptide GRGDIPASSKG4SRL6R-NH2)]
- 23RGD:silk molar ratio bound [1]: 3.35 mol 23RGD per mol silk
- 23RGD:silk molar ratio bound [2]: 1.1 mol 23RGD per mol silk
- 23RGD:silk molar ratio bound [3]: ~10 mol 23RGD per mol silk
- 23RGD:silk molar ratio bound [4]: 9.9 mol 23RGD per mol silk
- 23RGD:silk molar ratio bound [5]: 10.5 mol 23RGD per mol silk
- fold of the expected (calculated) bound 23RGD [6]: ~1.5 fold
- 23RGD:silk molar ratio bound [7]: 6.95 mol 23RGD per mol silk
- 23RGD:silk molar ratio bound [8]: 8.7 mol 23RGD per mol silk
- 23RGD:silk molar ratio bound [9]: 5.2 mol 23RGD per mol silk
- apparent saturation, 23RGD:silk ratio [10]: ~10 mol 23RGD per mol silk
- fold of the expected (calculated) bound 23RGD [11]: ~2 fold
- 23RGD:silk molar ratio bound [12]: 10.7 mol 23RGD per mol silk
- 23RGD:silk molar ratio bound [13]: 11 mol 23RGD per mol silk
